Measurements from PMC5731645 (Neuron, 2017).
Read-outs that look alike come from different tables or passages of the source.

T1: trx-Ndel1 CT-CC (mouse, UniProt Q9ERR1-1 238-284)
T1 chain (looked up): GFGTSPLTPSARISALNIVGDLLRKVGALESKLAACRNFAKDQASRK

T2: DISC1 765–852 (mouse, UniProt Q811T9-1 765-852)
T2 sequence (looked up): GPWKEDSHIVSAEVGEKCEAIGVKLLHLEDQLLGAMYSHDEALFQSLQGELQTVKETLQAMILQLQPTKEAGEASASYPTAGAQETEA

B1: DISC1 765–835 (domain or fragment, mouse, UniProt Q811T9-1 765-835, looked up)
chain: GPWKEDSHIVSAEVGEKCEAIGVKLLHLEDQLLGAMYSHDEALFQSLQGELQTVKETLQAMILQLQPTKEA
B2: Nde1 CT-CC (domain or fragment, human, UniProt Q9NXR1-2 239-286, looked up)
chain: STGGTPLTPAARISALNIVGDLLRKVGALESKLASCRNLVYDQSPNRT
B3: full-length Ndel1 (natural protein, mouse, UniProt Q9ERR1-1 1-345, looked up)
chain: MDGEDIPDFSSLKEETAYWKELSLKYKQSFQEARDELVEFQEGSRELEAELEAQLVQAEQRNRDLQADNQRLKYEVEALKEKLEHQYAQSYKQVSVLEDDLSQTRAIKEQLHKYVRELEQANDDLERAKRATIVSLEDFEQRLNQAIERNAFLESELDEKESLLVSVQRLKDEARDLRQELAVRERQQEVTRKSAPSSPTLDCEKMDSAVQASLSLPATPVGKGTENSFPSPKAIPNGFGTSPLTPSARISALNIVGDLLRKVGALESKLAACRNFAKDQASRKSYVPGSVNCGVMNSNGPECPRSGRATFFHKGAVNGFDPAPPPPGLGSSRPSSAPGMLPLSV
B4: Ndel1 with the C-terminal half (aa 194–345) truncated (domain or fragment, mouse, UniProt Q9ERR1-1 1-193, looked up)
chain: MDGEDIPDFSSLKEETAYWKELSLKYKQSFQEARDELVEFQEGSRELEAELEAQLVQAEQRNRDLQADNQRLKYEVEALKEKLEHQYAQSYKQVSVLEDDLSQTRAIKEQLHKYVRELEQANDDLERAKRATIVSLEDFEQRLNQAIERNAFLESELDEKESLLVSVQRLKDEARDLRQELAVRERQQEVTRK
B5: Ndel1 CT-CC (domain or fragment, mouse, UniProt Q9ERR1-1 238-284, looked up)
chain: T1 chain (looked up)
B6: full-length Nde1 (natural protein, human, UniProt Q9NXR1-2 1-335, looked up)
chain: MEDSGKTFSSEEEEANYWKDLAMTYKQRAENTQEELREFQEGSREYEAELETQLQQIETRNRDLLSENNRLRMELETIKEKFEVQHSEGYRQISALEDDLAQTKAIKDQLQKYIRELEQANDDLERAKRATIMSLEDFEQRLNQAIERNAFLESELDEKENLLESVQRLKDEARDLRQELAVQQKQEKPRTPMPSSVEAERTDTAVQATGSVPSTPIAHRGPSSSLNTPGSFRRGLDDSTGGTPLTPAARISALNIVGDLLRKVGALESKLASCRNLVYDQSPNRTGGPASGRSSKNRDGGERRPSSTSVPLGDKGLDTSCRWLSKSTTRSSSSC
B7: DISC1 322–852 (domain or fragment, mouse, UniProt Q811T9-1 322-852, looked up)
chain: ADAHGWHTLLREWEPMLQDYLLSNRRQLEVTSLILKLQKCQEKVVEDGDYDTAETLRQRLEELEQEKGRLSWALPSQQPALRSFLGYLAAQIQVALHGATQRAGSDDPEAPLEGQLRTTAQDSLPASITRRDWLIREKQRLQKEIEALQARMSALEAKEKRLSQELEEQEVLLRWPGCDLMALVAQMSPGQLQEVSKALGETLTSANQAPFQVEPPETLRSLRERTKSLNLAVRELTAQVCSGEKLCSSLRRRLSDLDTRLPALLEAKMLALSGSCFSTAKELTEEIWALSSEREGLEMFLGRLLALSSRNSRRLGIVKEDHLRCRQDLALQDAAHKTRMKANTVKCMEVLEGQLSSCRCPLLGRVWKADLETCQLLMQSLQLQEAGSSPHAEDEEQVHSTGEAAQTAALAVPRTPHPEEEKSPLQVLQEWDTHSALSPHCAAGPWKEDSHIVSAEVGEKCEAIGVKLLHLEDQLLGAMYSHDEALFQSLQGELQTVKETLQAMILQLQPTKEAGEASASYPTAGAQETEA

Legend:
full-length Nde1 = biological target: B6; assay: ITC
trx-Ndel1 CT-CC = biological target: T1, trx-Ndel1 CT-CC; assay: SEC-MALS
SEC-MALS [1] = biological target: the molecule itself; assay: SEC-MALS
DISC1 765–835 = biological target: B1; assay: ITC
SEC-MALS [2] = biological target: the molecule itself; assay: SEC-MALS; remark: listed apart in the source
DISC1 765–852 = biological target: T2, DISC1 765–852; assay: NMR structure
DISC1 322–852 = biological target: B7; assay: ITC

In the case of B1, the binding result (full-length Nde1) is reported as “binds”, the “stoichiometry N” value (trx-Ndel1 CT-CC) is reported as 1 and the “stoichiometry N” value (SEC-MALS [1]) is reported as 2.

B2: binds (DISC1 765–835).

B3 was tested, and the “stoichiometry N” value (SEC-MALS [2]) was 2.

With B4 the “stoichiometry N” value (SEC-MALS [2]) was 2.

B5: binds (DISC1 765–835); binds (DISC1 765–852).

Binder B6 has a Kd (DISC1 322–852) of about 40 nM.

For B7, the “stoichiometry N” value (full-length Nde1) was 1.
